Source: patent US20220064284A1 (Janssen / Centocor, published 2022)

Legend:
GP5B305 = biological target: T1, GP5B305; experiment: SPR (ProteOn XPR36), mAb captured on anti-mouse Fc, antigen 50 nM to 0.2 nM in solution
T1 construct: Used as the analyte in the ProteOn assay ('Antigens (scFV Fc Fusions)'); not shown: Hinge/Fc of HC2; all of HC1 (CD3B376 Fab heavy chain with C-terminal BCMB516-LH-scFv); CD3B376 light chain
Method: ProteOn XPR36 system (BioRad) was used to perform binding assays. ProteOn GLC chips (BioRad, Cat #176-5011) were coated with Anti-Mouse Fc antibody. Library Antibodies (Mouse IgG2a) diluted to 0.25 ug/ml to 1 ug/ml to reach approximately 100-200RL. Antigens (scFV Fc Fusions) are associated at 50 nM to 0.2 nM, 1:4 dilutions for 3 minutes. Dissociation for 30 mins. The results of the assay (Table 1 below) show picomolar affinity of GP5B318 with GP5B305. GP5B305 is a bi-specific antibody that includes HCl N-Terminal CD3B376-Fab/C-Terminal BCMB516-LH-scFv* and HC2 N-Terminal GP5B83 N23T, N30S-LH-scFv*.

[1] = biological target: T2, GPRC5D CAR GP5DB83-HL expressed on SupT1 cells; experiment: flow cytometry on GPRC5D CAR (GP5DB83-HL) SupT1 cells, unconjugated GP5B318 detected with PE-goat anti-mouse IgG, PE MFI
T2 construct: Chimeric antigen receptor with the GP5B83 scFv in VH-VL order; also called GP5DB83-HL CAR; CAR 1 (GP5B83-HL)
Method: SupT1 cells expressing GP5DB83-HL were compared to parental CAR-SupT1 cells. SupT1 cells expressing GP5DB83-HL and parental CAR-SupT1 cells were stained with near IR LIVE/DEAD fluorescent reactive dye on ice for 20 mins. After incubation, the cells were washed and resuspended in BSA stain buffer Cells (100,000 cells/well) were plated in a 96 well plate and incubated with increasing concentrations of GP5B318 for 30 minutes on ice with and without 10 μg/mL CAR-Fc Fusion protein, GP5B83_N24T_N315-HL-hu Fc-scFv (GP5B30.002). Following incubation, the samples were washed with BSA stain buffer and stained with PE-goat anti-mouse IgG polyclonal to detect bound antibody on live SupT1 cells. After incubation, washing, and fixation, the samples were acquired on a 10 color FACSCanto II flow cytometer. Analysis was done using FlowJo and the PE median fluorescent intensity of live SupT1 cells is plotted in FIG. 3. […] No binding was detected on CAR-SupT1 parental cells.

[2] = biological target: T2, GPRC5D CAR GP5DB83-HL expressed on …; experiment: flow cytometry on GPRC5D CAR (GP5DB83-HL) SupT1 cells, directly PE-conjugated GP5B318, PE MFI
Method: GP5B318 was conjugated to R-PE as described above and tested for binding to GP5DB83-HL SupT1 in the presence or absence of 10 μg/mL GP5DB83-scFv Fc fusion protein to assess the specificity of GP5B318 binding to GP5DB83-HL CAR and ensure CAR detection was not affected by PE labeling. GP5DB83-HL SupT1 cells were stained with near IR LIVE/DEAD fluorescent reactive dye in 50 mL tube on ice for 20 mins. After incubation, the cells were washed and resuspended in BSA stain buffer to 2×10⁶ cells/mL. 100,000 cells/well were seeded in 96 well plate and incubated with increasing concentrations of PE-GP5B318 and 10 μg/mL GP5DB83-scFv Fc for 45 minutes on ice. After incubation, washing, and fixation, the samples were acquired on a 10 color FACSCanto II flow cytometer. Analysis was performed using FlowJo analysis software and the PE median fluorescent intensity of live SupT1 cells is plotted in FIG. 4.

T1 sequence (scFv, as listed by the source limits assumed): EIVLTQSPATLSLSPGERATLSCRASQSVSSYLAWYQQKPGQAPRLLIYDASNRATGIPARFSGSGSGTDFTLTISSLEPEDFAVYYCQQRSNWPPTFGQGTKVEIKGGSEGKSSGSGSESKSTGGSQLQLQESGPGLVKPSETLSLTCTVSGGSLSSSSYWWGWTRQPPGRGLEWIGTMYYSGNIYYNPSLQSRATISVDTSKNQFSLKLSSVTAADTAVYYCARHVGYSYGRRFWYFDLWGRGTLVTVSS
T2 sequence (chain, as listed by the source limits assumed): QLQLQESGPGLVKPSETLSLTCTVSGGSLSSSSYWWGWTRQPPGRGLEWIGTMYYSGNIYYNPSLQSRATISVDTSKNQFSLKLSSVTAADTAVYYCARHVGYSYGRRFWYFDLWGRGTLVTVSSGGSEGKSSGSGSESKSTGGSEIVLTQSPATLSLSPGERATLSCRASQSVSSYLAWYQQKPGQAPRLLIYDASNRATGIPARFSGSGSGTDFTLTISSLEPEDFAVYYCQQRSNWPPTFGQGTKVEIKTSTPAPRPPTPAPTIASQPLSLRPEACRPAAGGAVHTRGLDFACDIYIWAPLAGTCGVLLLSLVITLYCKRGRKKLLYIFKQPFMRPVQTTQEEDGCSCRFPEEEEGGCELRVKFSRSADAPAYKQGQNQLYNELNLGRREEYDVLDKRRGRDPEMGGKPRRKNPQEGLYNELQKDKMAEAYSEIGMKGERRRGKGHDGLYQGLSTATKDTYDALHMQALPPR

| Kd (GP5B305) [pM] | koff (GP5B305) [s⁻¹] | kon (GP5B305) [M⁻¹ s⁻¹] | EC50 [1] [µg/mL] | EC50 [2] [µg/mL] | Binder |
| --- | --- | --- | --- | --- | --- |
| < 2.9 | < 2.9e-05 | > 1e+07 | 0.03 | – | GP5B318 (antibody, mouse IgG2a, kappa, V domains shown, made in HEK293 Expi or CHO; also called anti-idiotypic antibody GP5B318; chimeric mAb with human VH/VL and murine IgG2a/k) VH: EVQLVQSGAEVKKPGESLKISCKGSGYSFTSYWIGWVRQMPGKGLEWMGIIYPGDSDTRYSPSFQGQVTISADKSISTAYLQWSSLKASDTAMYYCARGWDYGTGEFDYWGQGTLVTVSS VL: EIVLTQSPGTLSLSPGERATLSCRASQSIGNWLNWYQQKPGKAPKLLIYYASSLQSGVPSRFSGSGSGTDFTLTISSLQPEDFAVYYCQQSLSFPITFGQGTKVEIKR |
| – | – | – | – | 0.1 | PE-GP5B318 (antibody, mouse IgG2a, kappa, V domains shown, antibody conjugated to R-phycoerythrin, purified to a 1:1 PE:antibody ratio; site not stated, GP5B318 labelled with phycoerythrin (Expedeon kit); also called PE-P5B318; GP5B318 conjugated to R-PE) VH: EVQLVQSGAEVKKPGESLKISCKGSGYSFTSYWIGWVRQMPGKGLEWMGIIYPGDSDTRYSPSFQGQVTISADKSISTAYLQWSSLKASDTAMYYCARGWDYGTGEFDYWGQGTLVTVSS VL: EIVLTQSPGTLSLSPGERATLSCRASQSIGNWLNWYQQKPGKAPKLLIYYASSLQSGVPSRFSGSGSGTDFTLTISSLQPEDFAVYYCQQSLSFPITFGQGTKVEIKR |
